Measurements as given in article PMC11514447, “Eukaryotic initiation factor 4B is a multi-functional RNA binding protein that regulates histone mRNAs”.

B1: CDK4-5'UTR (ssRNA)
RNA: GGCUGGCGUGAGGGUCUCCCUUGAUCUGAGAAUG
B2: His1-ssRNA (ssRNA)
RNA: UCCUUUGGCCAACUGCUUAGAAGCCCAACACAACCCAAA
B3: His4-ssRNA (ssRNA)
RNA: GCUGCACUCUUAUUUUCAUUUUCAACCAAA
B4: His1-FL (structured_RNA)
RNA: UCCUUUGGCCAACUGCUUAGAAGCCCAACACAACCCAAAGGCUCUUUUCAGAGCCACCCA

Biological target: eIF4B (UniProt P23588 1-611)
Test: fluorescence polarization; 2 mM ATP, 2 mM Mg2+; 20 mM HEPES/KOH pH 7.5, 100 mM KCl, 1 mM TCEP, 2 mM ATP, 2 mM MgCl2, 40 nM FAM-RNA, 60 min, 25 C; Kd values only in figures (one-site fit, n=3)
Conditions: protein: recombinant

eIF4B, sequence (P23588 whole entry): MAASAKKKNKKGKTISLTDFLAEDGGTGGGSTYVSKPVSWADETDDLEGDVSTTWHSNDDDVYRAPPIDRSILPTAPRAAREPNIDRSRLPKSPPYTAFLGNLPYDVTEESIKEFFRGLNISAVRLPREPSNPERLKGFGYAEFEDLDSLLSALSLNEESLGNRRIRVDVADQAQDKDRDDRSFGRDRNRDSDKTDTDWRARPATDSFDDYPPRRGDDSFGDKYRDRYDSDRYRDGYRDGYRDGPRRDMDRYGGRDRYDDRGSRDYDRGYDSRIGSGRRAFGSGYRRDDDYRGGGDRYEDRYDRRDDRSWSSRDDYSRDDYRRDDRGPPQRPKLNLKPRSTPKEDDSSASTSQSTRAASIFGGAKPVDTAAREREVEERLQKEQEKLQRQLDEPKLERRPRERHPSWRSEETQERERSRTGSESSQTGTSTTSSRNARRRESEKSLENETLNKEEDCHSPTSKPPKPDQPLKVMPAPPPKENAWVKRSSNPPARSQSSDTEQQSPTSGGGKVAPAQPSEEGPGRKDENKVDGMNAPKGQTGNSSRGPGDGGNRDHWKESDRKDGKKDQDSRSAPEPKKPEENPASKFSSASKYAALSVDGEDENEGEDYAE

Binder | binding result | binding result (3' hairpin, 6-bp stem, 4-nt loop)
B1 | binds | –
B2 | binds | –
B3 | binds | –
B4 | – | binds
